What was measured:
[1] = target: T1, … (VLD) WT1 peptide pulsed on target cells (HLA-02.01 positive T2 cell line; OCI-AML3); assay: cell-based or functional assay
[2] = target: T1, … (VLD) WT1 peptide pulsed on target …; assay: cell-based or functional assay; remark: listed apart in the source
[3] = target: T1, … (VLD) WT1 peptide pulsed on target …; assay: cell-based or functional assay; remark: listed apart in the source
[4] = target: T2, … (RMF) WT1 peptide pulsed on target cells (HLA-02.01 positive T2 cell line; OCI-AML3); assay: cell-based or functional assay
[5] = target: T3, VLD-Tetramer (pMHC tetramer with WT1 peptide …); assay: flow cytometry, VLD-Tetramer staining of engineered T cells; TRAC RNP only
T3 construct: Staining reagent; also called VLD (Wilms' tumor antigen) tetramer; TCR specific pMHC tetramer
Method: (§1) Four to 12 days after RNP nucleofection, edited T cells (200 ul/200,000 cells) were collected in a 96 well round bottom plate and spun down at 500 g for 5 minutes. Cells were then resuspended in an antibody mixture containing a combination of antibodies targeting CD3, CD4, CD8, CD45RO, CD45RA, CD27, CCR7, CD62L, and/or the TCR specific pMHC tetramer or TCR specific Vbeta chain antibody. The mixture was incubated for 45 minutes at room temperature in the dark. Samples were spun down at 500 g for 5 minutes, cell pellets collected, and resuspended in 1:10,000 DAPI (Biolegend—#422801) in FACS buffer. Flow cytometry was then performed using the cytoflex according to the manufacturer's instructions.
(§2) T cells were evaluated with additional engineered TCRs for the impact of endogenous beta chains on pairing of both the inserted alpha chain and inserted beta chain. The experiment was performed as described herein except tetramer staining was used to measure MFI and the AAV inserts in Table 31 were used for transduction.

[6] = target: T1, … (VLD) WT1 peptide pulsed on target …; assay: cell-based or functional assay; remark: listed apart in the source
[7] = target: T2, … (RMF) WT1 peptide pulsed on target …; assay: cell-based or functional assay; remark: listed apart in the source
[8] = target: T3, VLD-Tetramer (pMHC tetramer with WT1 …); assay: flow cytometry, VLD-Tetramer staining of engineered T cells; TRAC + TRBC RNP
Method: as §1, §2

[9] = target: T1, … (VLD) WT1 peptide pulsed on target …; assay: cell-based or functional assay; remark: listed apart in the source
[10] = target: T2, … (RMF) WT1 peptide pulsed on target …; assay: cell-based or functional assay; remark: listed apart in the source
[11] = target: T4, WT1 (Wilms' tumor protein) peptide on HLA-A*02:01 (human); assay: killing
T4 peptide: RMFPNAPYL

B1: TCR-H (WT1-specific T-cell receptor) (TCR, V domains shown)
V domain 1: RKEVEQDPGPFNVPEGATVAFNCTYSNSASQSFFWYRQDCRKEPKLLMSVYSSGNEDGRFTAQLNRASQYISLLIRDSKLSDSATYLCVVKPDPGAGSYQLTFGKGTKLSVIP
V domain 2: NAGVTQTPKFRVLKTGQSMTLLCAQDMNHEYMYWYRQDPGMGLRLIHYSVGEGTTAKGEVPDGYNVSRLKKQNFLLGLESAAPSQTSVYFCASRGYHRLNNEQFFGPGTRLTVLE
notes: also called AV16-TCR-H
IFN-gamma release; TRAC/TRBC; 50 nM VLD; T2 [1]: 16100
IFN-gamma release; TRAC/TRBC; 500 nM VLD; T2 [1]: 24400
IFN-gamma release; only TRAC; 50 nM VLD; T2 [1]: 15900
IFN-gamma release; only TRAC; 500 nM VLD; T2 [1]: 24300
IL2 release; TRAC only; 0 nM VLD; T2 [2]: 102 pg/mL
IL2 release; TRAC only; 0.005 nM VLD; T2 [2]: 44 pg/mL
IL2 release; TRAC only; 0.05 nM VLD; T2 [2]: 2 pg/mL
IL2 release; TRAC only; 0.5 nM VLD; T2 [2]: 23 pg/mL
IL2 release; TRAC only; 5 nM VLD; T2 [2]: 175 pg/mL
IL2 release; TRAC only; 50 nM VLD; T2 [2]: 111 pg/mL
IL2 release; TRAC only; 500 nM VLD; T2 [2]: 387 pg/mL
IL2 release; TRAC/TRBC; 0 nM VLD; T2 [2]: 17 pg/mL
IL2 release; TRAC/TRBC; 0.005 nM VLD; T2 [2]: 15 pg/mL
IL2 release; TRAC/TRBC; 0.05 nM VLD; T2 [2]: 40 pg/mL
IL2 release; TRAC/TRBC; 0.5 nM VLD; T2 [2]: 17 pg/mL
IL2 release; TRAC/TRBC; 5 nM VLD; T2 [2]: 30 pg/mL
IL2 release; TRAC/TRBC; 50 nM VLD; T2 [2]: 286 pg/mL
IL2 release; TRAC/TRBC; 500 nM VLD; T2 [2]: 455 pg/mL
% CD4+ TNFa+ IFNg+; TRAC/TRBC; 0 nM VLD; T2 [3]: 3.1%
% CD4+ TNFa+ IFNg+; TRAC/TRBC; 0.005 nM VLD; T2 [3]: 2.1%
% CD4+ TNFa+ IFNg+; TRAC/TRBC; 0.05 nM VLD; T2 [3]: 3%
% CD4+ TNFa+ IFNg+; TRAC/TRBC; 0.5 nM VLD; T2 [3]: 4.4%
% CD4+ TNFa+ IFNg+; TRAC/TRBC; 5 nM VLD; T2 [3]: 6%
% CD4+ TNFa+ IFNg+; TRAC/TRBC; 50 nM VLD; T2 [3]: 6.9%
% CD8+ TNFa+ IFNg+; TRAC/TRBC; 0 nM VLD; T2 [3]: 0.5%
% CD8+ TNFa+ IFNg+; TRAC/TRBC; 0.005 nM VLD; T2 [3]: 3.7%
% CD8+ TNFa+ IFNg+; TRAC/TRBC; 0.05 nM VLD; T2 [3]: 27.1%
% CD8+ TNFa+ IFNg+; TRAC/TRBC; 0.5 nM VLD; T2 [3]: 48.7%
% CD8+ TNFa+ IFNg+; TRAC/TRBC; 5 nM VLD; T2 [3]: 67.5%
% CD8+ TNFa+ IFNg+; TRAC/TRBC; 50 nM VLD; T2 [3]: 79.2%
% CD4+ TNFa+ IFNg+; TRAC/TRBC; 50 nM RMF; T2 [4]: 2.9%
% CD8+ TNFa+ IFNg+; TRAC/TRBC; 50 nM RMF; T2 [4]: 0.6%
Mean % Tetramer+ (CD4+) [5]: 71.7%
Mean % Tetramer+ (CD8+) [5]: 68.8%
Mean Tetramer MFI (CD4+) [5]: 64300 MFI
Mean Tetramer MFI (CD8+) [5]: 75200 MFI
% CD4+ CD107a+; TRAC/TRBC; 0 nM VLD; T2 [6]: 3.42%
% CD4+ CD107a+; TRAC/TRBC; 0.005 nM VLD; T2 [6]: 3.63%
% CD4+ CD107a+; TRAC/TRBC; 0.05 nM VLD; T2 [6]: 4.48%
% CD4+ CD107a+; TRAC/TRBC; 0.5 nM VLD; T2 [6]: 6.82%
% CD4+ CD107a+; TRAC/TRBC; 5 nM VLD; T2 [6]: 8.09%
% CD4+ CD107a+; TRAC/TRBC; 50 nM VLD; T2 [6]: 8.28%
% CD8+ CD107a+; TRAC/TRBC; 0 nM VLD; T2 [6]: 2.29%
% CD8+ CD107a+; TRAC/TRBC; 0.005 nM VLD; T2 [6]: 5.05%
% CD8+ CD107a+; TRAC/TRBC; 0.05 nM VLD; T2 [6]: 23.6%
% CD8+ CD107a+; TRAC/TRBC; 0.5 nM VLD; T2 [6]: 45.6%
% CD8+ CD107a+; TRAC/TRBC; 5 nM VLD; T2 [6]: 60.7%
% CD8+ CD107a+; TRAC/TRBC; 50 nM VLD; T2 [6]: 70.5%
% CD4+ CD107a+; TRAC/TRBC; 50 nM RMF; T2 [7]: 3.7%
% CD8+ CD107a+; TRAC/TRBC; 50 nM RMF; T2 [7]: 2.64%
Mean % Tetramer+ (CD4+) [8]: 80.2%
Mean % Tetramer+ (CD8+) [8]: 77.1%
Mean Tetramer MFI (CD4+) [8]: 131000 MFI
Mean Tetramer MFI (CD8+) [8]: 139000 MFI
Caspase 3/7 integrated intensity; TRAC only; 0 nM VLD; T2 [9]: 6560
Caspase 3/7 integrated intensity; TRAC only; 0.005 nM VLD; T2 [9]: 7650
Caspase 3/7 integrated intensity; TRAC only; 0.05 nM VLD; T2 [9]: 23600
Caspase 3/7 integrated intensity; TRAC only; 0.5 nM VLD; T2 [9]: 550000
Caspase 3/7 integrated intensity; TRAC only; 5 nM VLD; T2 [9]: 992000
Caspase 3/7 integrated intensity; TRAC only; 50 nM VLD; T2 [9]: 1.08e+06
Caspase 3/7 integrated intensity; TRAC only; 500 nM VLD; T2 [9]: 1.18e+06
Caspase 3/7 integrated intensity; TRAC/TRBC; 0 nM VLD; T2 [9]: 7390
Caspase 3/7 integrated intensity; TRAC/TRBC; 0.005 nM VLD; T2 [9]: 9820
Caspase 3/7 integrated intensity; TRAC/TRBC; 0.05 nM VLD; T2 [9]: 32400
Caspase 3/7 integrated intensity; TRAC/TRBC; 0.5 nM VLD; T2 [9]: 628000
Caspase 3/7 integrated intensity; TRAC/TRBC; 5 nM VLD; T2 [9]: 984000
Caspase 3/7 integrated intensity; TRAC/TRBC; 50 nM VLD; T2 [9]: 1.08e+06
Caspase 3/7 integrated intensity; TRAC/TRBC; 500 nM VLD; T2 [9]: 1.18e+06
Caspase 3/7 integrated intensity; TRAC only; 500 nM RMF; T2 [10]: 4190
Caspase 3/7 integrated intensity; TRAC/TRBC; 500 nM RMF; T2 [10]: 3890

B2: TCR-H (TCR, V domains shown)
Valpha: B1 V domain 1
Vbeta: NAGVTQTPKFRVLKTGQSMTLLCAQDMNHEYMYWYRQDPGMGLRLIHYSVGEGTTAKGEVPDGYNVSRLKKQNFLLGLESAAPSQTSVYFCASRGYHRLNNEQFFGPGTRLTVL
binding result [11]: no recognition

B3: TCR-F (TCR, V domains shown)
Valpha: AQKITQTQPGMFVQEKEAVTLDCTYDTSDPSYGLFWYKQPSSGEMIFLIYQGSYDQQNATEGRYSLNFQKARKSANLVISASQLGDSAMYFCAISGNTPLVFGKGTRLSVIA
Vbeta: AAGVIQSPRHLIKEKRETATLKCYPIPRHDTVYWYQQGPGQDPQFLISFYEKMQSDKGSIPDRFSAQQFSDYHSELNMSSLELGDSALYFCASSLRGGLEKLFFGSGTQLSVL
binding result [11]: no recognition

B4: TCR-G (TCR, V domains shown)
Valpha: DQQVKQNSPSLSVQEGRISILNCDYTNSMFDYFLWYKKYPAEGPTFLISISSIKDKNEDGRFTVFLNKSAKHLSLHIVPSQPGDSAVYFCAARGQGNLIFGKGTKLSVKP
Vbeta: EAGVAQSPRYKIIEKRQSVAFWCNPISGHATLYWYQQILGQGPKLLIQFQNNGVVDDSQLPKDRFSAERLKGVDSTLKIQPAKLEDSAVYLCASSLYRGEQYFGPGTRLTVT
binding result [11]: no recognition

— patent publication US20210340530A1 (INTELLIA THERAPEUTICS, published 2021)
